In general, Km refers to the concentration of substrate that gives half-maximal velocity.

We go through one protein from patent publication US4753882A, “Urease and process for preparation thereof” (Sapporo Breweries Limited, priority 1986, dated 1988).

Substrate in the data set: NC(N)=O
Put plainly: Km determination of urease by the GlDH method. The conditions noted are these: other: GlDH method, 40 mM Tris-HCl buffer pH 8.0, 37° C. Type of data set: biochemical, Bacillus sp. TB-90. Here is the method:
A reaction solution consisting of 100 millimoles (mM) of urea, 40 mM of Tris-HCl buffer (pH 8.0), 0.86 mM of α-ketoglutaric acid, 0.31 mM of NADPH and 17.2 unit per milliliter (U/ml) of glutamate dehydrogenase (GlDH) was maintained at 37° C. Then an enzyme solution to be measured was added to the reaction solution to initiate the reaction, and a rate of decrease in absorbance at 37° C., E340 nm, was measured. All the concentrations are indicated in their final concentrations. A rate of decrease in NADPH was calculated from the rate of decrease in absorbance E340 nm, and the amount of ammonia formed by the action of urease was calculated from the rate of decrease in absorbance E340 nm.
In connection with enzyme activity, an amount of the enzyme forming 2 micromoles (μmole) of ammonia per minute was defined as one unit (1 U). This definition was calculated based on experiments carried out under the conditions described in the aforementioned GlDH method.
The Km value as determined under the conditions of the aforementioned GlDH method was about 0.3 mM for urea.

B1: urease (EC 3.5.1.5) from Bacillus sp. Strain TB-90 (FERM BP-795) (Bacillus sp. TB-90) (protein)
chain: MSFSMSRKQYADMFGPTVGDAIRLADSELFIEIEKDYTTYGDEVKFGGGKVIRDGMGQHPLATSDECVDLVLTNAIIVDYTGIYKADIGIKDGMIASIGKAGNPLLMDGVDMVIGAATEVIAAEGMIVTAGGIDAHIHFICPQQIETALASGVTTMIGGGTGPATGTNATTCTPGPWNIHRMLQAAEEFPINLGFLGKGNCSDEAPLKEQIEAGAVGLKLHEDWGSTAAAIDTCLKVADRYDVQVAIHTDTLNEGGFVEDTLKAIDGRVIHTYHTEGAGGGHAPDIIKAAGFPNILPSSTNPTRPYTINTLEEHLDMLMVCHHLDANIPEDIAFADSRIRKETIAAEDVLHDLGVFSMISSDSQAMGRVGEVIIRTWQTADKMKKQRGKLQEDNGVGDNFRVKRYIAKYTINPAIAHGIADYVGSVEVGKLADLVVWNPAFFGVKPELVLKGGMIAYSTMGDPNASIPTPQPVLYRPMFAAKGDAKYQTSITFVSKAAYEKGIHEQLGLKKKVKPVHGIRKLTKKDLILNDKTPKIDVDPQTYEVKVDGQLVTCEPAEIVPMAQRYFLF
Consider B1, for which the Km is 300 µM.
